Laboratory results: patent US10357539B2, “Use of peptides that block metadherin-SND1 interaction as treatment for cancer” (THE TRUSTEES OF PRINCETON UNIVERSITY, priority 2014, dated 2019)
Numbering of substitutions follows the chain as printed. Numbers in names are those of the source.

T1: MTDH (364-582) (Homo sapiens, UniProt Q86UE4)
T1 construct: made in house; host or cells: E. coli DH5α
T1 sequence (Q86UE4 364-582): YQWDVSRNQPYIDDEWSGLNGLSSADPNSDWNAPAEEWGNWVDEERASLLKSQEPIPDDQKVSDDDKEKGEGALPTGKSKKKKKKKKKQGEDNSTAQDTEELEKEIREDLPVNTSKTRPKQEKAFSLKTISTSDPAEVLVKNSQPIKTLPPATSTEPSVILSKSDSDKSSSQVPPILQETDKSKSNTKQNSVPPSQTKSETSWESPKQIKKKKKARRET

T2: Myc-MTDH (Homo sapiens, UniProt Q86UE4, A78S/T317A)
T2 construct: Full-length HA-tagged SND1 was co-expressed with full-length Myc-tagged wild-type (WT) or mutant MTDH in HEK293T cells; expressed in transfected cells; host or cells: HEK293T
T2 sequence (Q86UE4 1-582 A78S/T317A): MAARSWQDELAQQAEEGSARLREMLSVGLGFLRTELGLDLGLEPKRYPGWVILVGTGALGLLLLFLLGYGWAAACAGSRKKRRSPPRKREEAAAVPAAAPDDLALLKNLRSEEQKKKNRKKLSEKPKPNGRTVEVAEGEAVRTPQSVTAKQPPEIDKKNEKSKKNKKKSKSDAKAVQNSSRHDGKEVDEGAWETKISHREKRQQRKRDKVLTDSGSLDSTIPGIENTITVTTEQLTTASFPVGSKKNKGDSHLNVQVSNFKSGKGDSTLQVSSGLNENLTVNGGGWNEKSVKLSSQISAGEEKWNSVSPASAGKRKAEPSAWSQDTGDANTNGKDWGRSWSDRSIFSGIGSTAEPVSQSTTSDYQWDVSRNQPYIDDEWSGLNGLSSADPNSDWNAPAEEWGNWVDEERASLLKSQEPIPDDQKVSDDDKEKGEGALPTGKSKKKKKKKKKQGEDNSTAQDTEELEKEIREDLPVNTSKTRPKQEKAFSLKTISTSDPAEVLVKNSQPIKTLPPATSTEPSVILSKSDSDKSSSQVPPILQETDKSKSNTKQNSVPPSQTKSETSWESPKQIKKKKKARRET

B1: Δ39-43: SND1 with deletion in the SN1 Lβ2-β3 loop (Δ39-43) (protein)
chain: VPTVQRGIIKMVLSGCAIIVRGQPPERQINLSNIRAGNLARRAAATQPDAKDTPDEPWAFPAREFLRKKLIGKEVCFTIENKTPQGREYGMIYLGKDTNGENIAESLVAEGLATRREGMRANNPEQNRLSECEEQAKAAKKGMWSEGNGSHTIRDLKYTIENPRHFVDSHHQKPVNAIIEHVRDGSVVRALLLPDYYLVTVMLSGIKCPTFRREADGSETPEPFAAEAKFFTESRLLQRDVQIILESCHNQNILGTILHPNGNITELLLKEGFARCVDWSIAVYTRGAEKLRAAERFAKERRLRIWRDYVAPTANLDQK
modifications: left off: small tags and cut ends
B2: R255E: SND1 mutant R255E (protein, listed as Homo sapiens)
chain: MASSAQSGGSSGGPAVPTVQRGIIKMVLSGCAIIVRGQPRGGPPPERQINLSNIRAGNLARRAAATQPDAKDTPDEPWAFPAREFLRKKLIGKEVCFTIENKTPQGREYGMIYLGKDTNGENIAESLVAEGLATRREGMRANNPEQNRLSECEEQAKAAKKGMWSEGNGSHTIRDLKYTIENPRHFVDSHHQKPVNAIIEHVRDGSVVRALLLPDYYLVTVMLSGIKCPTFRREADGSETPEPFAAEAKFFTESELLQRDVQIILESCHNQNILGTILHPNGNITELLLKEGFARCVDWSIAVYTRGAEKLRAAERFAKERRLRIWRDYVAPTANLDQKDKQFVAKVMQVLNADAIVVKLNSGDYKTIHLSSIRPPRLEGENTQDKNKKLRPLYDIPYMFEAREFLRKKLIGKKVNVTVDYIRPASPATETVPAFSERTCATVTIGGINIAEALVSKGLATVIRYRQDDDQRSSHYDELLAAEARAIKNGKGLHSKKEVPIHRVADISGDTQKAKQFLPFLQRAGRSEAVVEYVFSGSRLKLYLPKETCLITFLLAGIECPRGARNLPGLVQEGEPFSEEATLFTKELVLQREVEVEVESMDKAGNFIGWLHIDGANLSVLLVEHALSKVHFTAERSSYYKSLLSAEEAAKQKKEKVWAHYEEQPVEEVMPVLEEKERSASYKPVFVTEITDDLHFYVQDVETGTQLEKLMENMRNDIASHPPVEGSYAPRRGEFCIAKFVDGEWYRARVEKVESPAKIHVFYIDYGNREVLPSTRLGTLSPAFSTRVLPAQATEYAFAFIQVPQDDDARTDAVDSVVRDIQNTQCLLNVEHLSAGCPHVTLQFADSKGDVGLGLVKEGLVMVEVRKEKQFQKVITEYLNAQESAKSARLNLWRYGDFRADDADEFGYSR
B3: F250A: SND1 mutant F250A (protein, listed as Homo sapiens)
chain: B2 chain with F250A, E255R
B4: R324E: SND1 mutant R324E (protein, listed as Homo sapiens)
chain: B2 chain with E255R, R324E
B5: SN3/4-TSN5 domains: SND1 C-terminal SN3/4-TSN5 domains, amino acids 340-885 of SEQ ID NO: 2 (protein, listed as Homo sapiens)
chain: DKQFVAKVMQVLNADAIVVKLNSGDYKTIHLSSIRPPRLEGENTQDKNKKLRPLYDIPYMFEAREFLRKKLIGKKVNVTVDYIRPASPATETVPAFSERTCATVTIGGINIAEALVSKGLATVIRYRQDDDQRSSHYDELLAAEARAIKNGKGLHSKKEVPIHRVADISGDTQKAKQFLPFLQRAGRSEAVVEYVFSGSRLKLYLPKETCLITFLLAGIECPRGARNLPGLVQEGEPFSEEATLFTKELVLQREVEVEVESMDKAGNFIGWLHIDGANLSVLLVEHALSKVHFTAERSSYYKSLLSAEEAAKQKKEKVWAHYEEQPVEEVMPVLEEKERSASYKPVFVTEITDDLHFYVQDVETGTQLEKLMENMRNDIASHPPVEGSYAPRRGEFCIAKFVDGEWYRARVEKVESPAKIHVFYIDYGNREVLPSTRLGTLSPAFSTRVLPAQATEYAFAFIQVPQDDDARTDAVDSVVRDIQNTQCLLNVEHLSAGCPHVTLQFADSKGDVGLGLVKEGLVMVEVRKEKQFQKVITEYLNAQESA
B6: R324A: SND1 mutant R324A (protein)
chain: VPTVQRGIIKMVLSGCAIIVRGQPRGGPPPERQINLSNIRAGNLARRAAATQPDAKDTPDEPWAFPAREFLRKKLIGKEVCFTIENKTPQGREYGMIYLGKDTNGENIAESLVAEGLATRREGMRANNPEQNRLSECEEQAKAAKKGMWSEGNGSHTIRDLKYTIENPRHFVDSHHQKPVNAIIEHVRDGSVVRALLLPDYYLVTVMLSGIKCPTFRREADGSETPEPFAAEAKFFTESRLLQRDVQIILESCHNQNILGTILHPNGNITELLLKEGFARCVDWSIAVYTRGAEKLRAAERFAKERRLAIWRDYVAPTANLDQK
modifications: left off: small tags and cut ends
B7: WT HA-SND1: full-length HA-tagged wild-type human SND1 (protein)
chain: B2 chain with E255R

What follows are molecules tested against T1, MTDH (364-582) (assay: GST-mediated pull-down of SND1 constructs and mutants by GST-tagged MTDH (364-582)). Conditions: SND1 mutants in SND1 (16-339).
Type: binding
From the text: (§1) (FIG. 22A) In vitro pull-down of SND1 (16-339) by GST-tagged MTDH (364-582) harboring WT or mutant sequence. The proteins bound to GS4B were examined on SDS-PAGE and visualized by Coomassie blue staining. (FIG. 22B) In vitro pull-down of WT and mutant SND1 (16-339) by GST-tagged MTDH (364-582). The bound proteins were examined as in (FIG. 22A). For both (FIG. 22A) and (FIG. 22B), experiments were repeated three times; representative results are shown. The normalized percentage of binding was averaged from three experiments; mean±SEM was shown below the data. (FIG. 22C) HEK293T cells were transfected with human HA-SND1, WT Myc-MTDH or Myc-MTDH with indicated single point mutation. Lysates were immunoprecipitated with anti-Myc antibody and immunoblotted with the indicated antibodies. (FIG. 22D) HEK293T cells were transfected with human Myc-MTDH, WT HA-SND1 or mutant HA-SND1 with indicated single point mutations or deletions. Lysates were immunoprecipitated with anti-Myc and immunoblotted with the indicated antibodies.
GST-Mediated Pull-Down Assay: ˜20 μg of GST-MTDH (different truncation forms and site mutants) was bound to 10 μl of glutathione resin via GST tag. The resin was washed with 200 μl assay buffer (25 mM Tris, PH8.0, 150 mM NaCl, 3 mM DTT) three times to remove the excess unbound protein. 15 μg of His-SND1 (16-339) was added to the resin in a 100 μl volume suspended in the assay buffer with 2 mg/ml of BSA. The mixture was washed with 200 μl assay buffer twice before examined by SDS-PAGE, and visualized by Coomassie blue staining. The experiments were repeated 3 times and the ratio of SND1 associated with GST-MTDH was analyzed by ImageJ.

Row | Molecule | MTDH-binding of SND1 domains and mutants, in vitro
1 | B1 | almost completely abolished MTDH-binding
2 | B2 | almost completely abolished MTDH-binding
3 | B3 | almost completely abolished MTDH-binding
4 | B4 | significantly weakened the MTDH-binding
5 | B5 | barely interact with MTDH
6 | B6 | barely affected MTDH-binding

The molecules below were run against T2, Myc-MTDH (assay: Co-immunoprecipitation of HA-SND1 (WT or mutant) with Myc-MTDH in HEK293T cells). Conditions: HEK293T cell lysates.
Type: cell-based
From the text: as §1
Immunoprecipitation and western blot: For in vivo immunoprecipitation (IP) experiments, cultured cells were washed in cold PBS and lysed in lysis buffer (20 mM Tris pH 7.4, 0.15 M NaCl, 1 mM EDTA, 1 mM EGTA, 1% Tx-100, 0.0025 M Na2P2O7, 1 mM β-glycerolphosphate, 1 mM Na3VO4, and 1 mM NaF) with an EDTA-free protease inhibitor mixture (Roche Applied Science) and PMSF. Cell lysates were then incubated on ice for 10 min, centrifuged, and precleared by incubating with protein A/G beads (Santa Cruz Biotechnology) for 1 h at 4° C. For IP bead preparation, 30 μl of protein A/G beads were incubated with 5 μg of antibodies for 2 h at 4° C. IPs were carried out for overnight at 4° C., and beads were centrifuged, washed and subsequently boiled for 5 min in SDS protein loading buffer to elute bound protein. IP lysates were subjected to western blotting with indicated antibodies.

Row | Molecule | interaction of full-length HA-SND1 (WT or mutant) with Myc-MTDH
7 | B1 | nearly completely abolished MTDH-binding
8 | B2 | nearly completely abolished MTDH-binding
9 | B3 | nearly completely abolished MTDH-binding
10 | B7 | bound readily with Myc-MTDH
11 | B4 | significantly reduced the binding
